The results in this text go back to patent US20230049152A1 (Genentech, published 2023).

Changes are numbered by the printed parent chain.

In one experiment the target is T1, human CCR8 (human, UniProt P51685 1-355).
T1 construct: the assay field says which; also called hCCR8; huCCR8
Briefly: flow cytometry, CHO-huCCR8.Gna15 cells, relative to rb.Ab4. Here is the method: Evaluation of CCR8 binding of the humanized variants with a hIgG1 Fc involved screening by flow cytometry, and comparing the relative EC₅₀ and MFI on human CCR8 CHO cells to the parental rabbit antibodies. Specifically, stable CHO-huCCR8.Gna15 cells were stained with various concentrations (starting from 10 ug/ml or 66.66 nM, 1:4 serial dilution for total 8 concentration points) of Ab4 and Ab5 variants at 4° C. for 30 minutes, then washed twice with FACS buffer (PBS with 0.5% BSA and 0.2 mM EDTA) and followed by staining with AF647-anti-hIgG at 4° C. for 15 min. Cells were washed twice with FACS buffer, and re-suspended in FACS buffer with propidium iodide (0.5 ug/ml) and analyzed with iQue3 (Sartorius).
Background: Flow cytometry measures light scatter and fluorescence of single cells or particles in a stream.

Experiment [1] addresses T2, human CCR8.CCR5 chimera ECL1 (human, UniProt P51681 86-99, limits assumed).
T2 construct: domain: ECL1; on transfected 293 cells; also called ECL1 chimera
Nature of the experiment: flow cytometry, 293 cells transfected with the CCR8.CCR5 chimera ECL1 with C-terminal FLAG. Here is the method: To epitope map fucosylated hu.Ab4.H12L3, the binding to chimeric forms of human CCR8 was analyzed by flow cytometry.

The next experiment addresses T3, F21A.
T3 construct: single alanine mutant of hCCR8; also called hCCR8 F21A
T3 receptor chain: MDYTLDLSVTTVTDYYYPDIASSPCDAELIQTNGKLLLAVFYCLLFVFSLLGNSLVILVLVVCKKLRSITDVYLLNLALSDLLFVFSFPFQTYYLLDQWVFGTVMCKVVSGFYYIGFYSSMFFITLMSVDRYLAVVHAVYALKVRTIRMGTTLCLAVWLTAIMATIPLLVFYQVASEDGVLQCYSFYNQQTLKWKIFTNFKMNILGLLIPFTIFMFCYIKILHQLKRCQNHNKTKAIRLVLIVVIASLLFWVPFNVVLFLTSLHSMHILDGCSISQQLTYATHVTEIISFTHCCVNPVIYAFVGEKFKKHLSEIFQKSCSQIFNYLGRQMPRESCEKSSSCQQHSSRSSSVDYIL
Nature of the experiment: flow cytometry, HEK293 transfected with hCCR8 F21A with C-terminal FLAG; sheet prints [huCCR8]=0.02 ug/ml. Here is the method: FIGS. 16A-16B depict the epitope maps for hu.Ab5.H13L1 (FIG. 16A) and hu.Ab4.H12L3 (FIG. 16B) mAbs.
(§1) To epitope map fucosylated hu.Ab5.H13L1, the binding to alanine point mutations in human CCR8 was analyzed by flow cytometry.

Another experiment has as its target T4, I20A.
T4 construct: single alanine mutant of hCCR8; also called hCCR8 I20A
T4 receptor chain: T3 receptor chain with I20A, A21F
Briefly: flow cytometry, HEK293 transfected with hCCR8 I20A with C-terminal FLAG; sheet prints [huCCR8]=0.02 ug/ml.

For another experiment, the target named is T5, hCCR8 L5A (human, UniProt P51685 1-355).
T5 construct: alanine point mutant on transfected HEK 293 cells
Nature of the experiment: flow cytometry on transfected HEK 293 cells. Here is the method:
as §1
Constructs encoding for individual alanine point mutations at positions 2-24 in hCCR8 with a C-terminal FLAG tag were generated. HEK 293 cells were transfected with constructs encoding for mutant hCCR8 or with a mock construct using transIT X2 (reagent:DNA=3:1) for 24 hrs, and surface stained with the huCCR8 antibody hu.Ab5.H13L1 (hIgG1), then fixed and permeabilized and followed by FITC-anti-Flag (Sigma F4049).

B1: hu.Ab4.H1L1 (antibody, human IgG1, kappa)
heavy: not shown
light: DYQMTQSPSSLSASVGDRVTITCQASQSISSYLSWYQQKPGKRPKLLIYKASTLASGVPSRFSGSGSGTDFTLTISSLQPEDFATYYCQQGYTSSNIDNIFGGGTKVEIKRTVAAPSVFIFPPSDEQLKSGTASVVCLLNNFYPREAKVQWKVDNALQSGNSQESVTEQDSKDSTYSLSSTLTLSKADYEKHKVYACEVTHQGLSSPVTKSFNRGEC
notes: also called hu.Ab4.H1Ll
In the case of B1, in the experiment with human CCR8, the “Relative EC50” value is 0.88 ratio and the “Relative MFI” value came to 0.95 ratio.

B2: hu.Ab4.H12L3 (antibody, human IgG1, kappa)
heavy: not shown
light: B1 light with R43A
notes: fucosylated human IgG1; also called huCCR8-Ab4.H12L3.hIgG1; Ab4 variant
Take B2: the binding result in experiment [1] is reported as “no binding”.

B3: hu.Ab5.H13L1 (antibody, human IgG1, kappa)
heavy: not shown
light: DIQVTQSPSSLSASVGDRVTITCQASENIANALAWYQQKPGKPPKFLIYGASNLASGVPSRFSGSGSGTDFTFTISSLQPEDIATYYCQQAYYGNSFVEGTFGGGTKVEIKRTVAAPSVFIFPPSDEQLKSGTASVVCLLNNFYPREAKVQWKVDNALQSGNSQESVTEQDSKDSTYSLSSTLTLSKADYEKHKVYACEVTHQGLSSPVTKSFNRGEC
notes: fucosylated human IgG1; also called Ab5 variant
Regarding B3, the values for the binding result with F21A, with I20A and with hCCR8 L5A were “binds”, “binds” and “no binding”, respectively.
